Publication PMC13430412

Legend:
[1] = target: Strep-tagged Rab7A (Q67L) (human) (UniProt P51149); assay: pull-down; Strep-Rab7A(Q67L) and FLAG-tagged VPS13C constructs co-expressed in Expi293F; lysate (buffer A with 1 mM GTP, 2 mM MgCl2) on Strep-Tactin XT resin, eluted with biotin; SDS-PAGE with Coomassie and/or anti-FLAG western blot
[2] = target: Rab7A(Q67L)-6xHis (human) (UniProt P51149); assay: liposome co-flotation; purified VPS13C constructs with SUVs (5% DGS-NTA) bearing His-tagged protein, 1 mM GTP, 2 mM Mg2+, room temperature 20 min; OptiPrep gradient, top fraction by SDS-PAGE
Sequence of Rab7A(Q67L)-6xHis (human) (P51149 whole entry Q67L): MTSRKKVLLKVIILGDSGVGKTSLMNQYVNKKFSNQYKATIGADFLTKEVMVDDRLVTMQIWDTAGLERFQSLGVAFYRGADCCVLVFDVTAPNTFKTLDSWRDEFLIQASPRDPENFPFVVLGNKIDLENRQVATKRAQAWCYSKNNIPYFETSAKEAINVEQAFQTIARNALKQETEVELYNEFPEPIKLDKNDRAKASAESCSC

Sequence of Strep-tagged Rab7A (Q67L) (human) (P51149 whole entry Q67L): as above

fraction of total overexpressed VPS13 retained [1] | fraction co-floated with SUVs bearing His-tagged Rab7A [2] | Substance
5% |  | VPS13C-3XFLAG (full-length human VPS13C with a C-terminal 3xFLAG tag), Q709C8 1-3753
 | > 80% | VPS13C-ΔATG2C-3xFLAG, Q709C8 1-3753
